The source of these data is patent US20170137512A1 (Ablynx, published 2017).

The target in experiment [1] is T1, rat Kv1.3 (Rattus norvegicus, UniProt P15384 1-525).
T1 construct: Expressed on CHO cells
Nature of the experiment: FACS, CHO cells expressing rat Kv1.3. For orientation: Flow cytometry measures light scatter and fluorescence of single cells or particles in a stream.

Experiment [2] has as its target T2, cyno Kv1.3 (Macaca fascicularis, UniProt P22001 1-575 (human entry)).
T2 chain: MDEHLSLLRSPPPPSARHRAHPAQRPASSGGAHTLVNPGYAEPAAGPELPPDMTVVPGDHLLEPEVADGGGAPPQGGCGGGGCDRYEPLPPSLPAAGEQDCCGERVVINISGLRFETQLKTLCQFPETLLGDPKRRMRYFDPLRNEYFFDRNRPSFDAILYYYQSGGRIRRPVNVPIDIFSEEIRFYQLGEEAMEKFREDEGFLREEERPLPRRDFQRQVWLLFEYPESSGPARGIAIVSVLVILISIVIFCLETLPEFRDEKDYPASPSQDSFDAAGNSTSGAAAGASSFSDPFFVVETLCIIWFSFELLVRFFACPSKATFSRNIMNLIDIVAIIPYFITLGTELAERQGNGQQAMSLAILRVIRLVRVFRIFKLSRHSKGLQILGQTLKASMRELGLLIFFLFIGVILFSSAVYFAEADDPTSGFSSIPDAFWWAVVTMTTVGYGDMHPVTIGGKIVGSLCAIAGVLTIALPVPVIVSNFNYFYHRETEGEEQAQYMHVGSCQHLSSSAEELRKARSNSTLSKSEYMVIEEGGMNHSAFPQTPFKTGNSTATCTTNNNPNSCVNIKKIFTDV

Experiment [3] concerns the target T2, cyno Kv1.3. Kind of experiment: FACS, CHO cells expressing cyno Kv1.3.
In experiment [4] the target is T3, human Kv1.3 (Homo sapiens, UniProt P22001 1-575). Kind of experiment: cell-based or functional assay.
T3 sequence (P22001 whole entry): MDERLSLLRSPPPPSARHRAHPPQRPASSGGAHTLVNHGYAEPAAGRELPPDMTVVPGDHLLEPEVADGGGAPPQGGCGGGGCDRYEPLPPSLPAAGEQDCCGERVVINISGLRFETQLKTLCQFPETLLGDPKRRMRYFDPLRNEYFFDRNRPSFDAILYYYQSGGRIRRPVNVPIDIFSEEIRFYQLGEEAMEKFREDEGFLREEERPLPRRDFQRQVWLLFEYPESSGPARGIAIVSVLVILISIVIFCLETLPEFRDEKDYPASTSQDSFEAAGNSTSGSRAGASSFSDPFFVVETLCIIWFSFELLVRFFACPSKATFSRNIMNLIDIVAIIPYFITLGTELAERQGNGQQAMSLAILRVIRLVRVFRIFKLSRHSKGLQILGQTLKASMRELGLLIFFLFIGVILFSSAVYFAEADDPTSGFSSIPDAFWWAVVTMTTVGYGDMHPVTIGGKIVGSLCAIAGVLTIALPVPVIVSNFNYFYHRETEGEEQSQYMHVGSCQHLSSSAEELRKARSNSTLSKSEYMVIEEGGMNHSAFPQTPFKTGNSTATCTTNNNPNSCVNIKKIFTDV
In experiment [5] the target is T3, human Kv1.3. Kind of experiment: FACS, CHO cells expressing human Kv1.3.
The target in experiment [6] is T1, rat Kv1.3. Nature of the experiment: FACS, CHO cells expressing rat Kv1.3, with 50 µM HSA.
Experiment [7] has as its target T2, cyno Kv1.3. Nature of the experiment: FACS, CHO cells expressing cyno Kv1.3, with 50 µM HSA.
Experiment [8] concerns the target T3, human Kv1.3. Kind of experiment: cell-based or functional assay. This is another data set of the same source.
For experiment [9], the target named is T1, rat Kv1.3. Nature of the experiment: FACS, CHO cells expressing rat Kv1.3. This is another data set of the same source.
Experiment [10] addresses T2, cyno Kv1.3. Nature of the experiment: FACS, CHO cells expressing cyno Kv1.3.

B1: A019400013 (VHH)
chain: EVQLVESGGGLVQAGGSLGLSCSASGLLFSRNSAGWYRQAPGKQREFVARIRMGGSINYADTVKGRFTISRDNAKNTVYLQMNSLKPEDTAVYYCSSWRTGFYEYWGQGTLVTVSSGGGGSGGGGSGGGGSGGGGSGGGGSGGGGSGGGGSEVQLVESGGGLVQAGGSLGLSCSASGLLFSRNSAGWYRQAPGKQREFVARIRMGGSINYADTVKGRFTISRDNAKNTVYLQMNSLKPEDTAVYYCSSWRTGFYEYWGQGTLVTVSS
notes: Bivalent Nanobody construct (family 12 - family 12), without Alb11; also called A0194009G09-35GS-A0194009G09
Usually EC50 stands for the concentration giving half of the maximal effect. High values mean a need for much substance, low ones an effect from little substance. By IC50 is commonly meant the point on the concentration scale where inhibition reaches its midpoint. Read a high IC50 as weaker potency. Turning to B1, the EC50 in the experiment with rat Kv1.3 [1] came out at 0.704 nM; with cyno Kv1.3 [3], 0.33 nM; with human Kv1.3 [5], 0.32 nM; with rat Kv1.3 [6], 0.85 nM; with cyno Kv1.3 [7], 0.45 nM; in the experiment with rat Kv1.3 [9] it was 0.49 nM. For the same molecule, the midpoint of the response in the experiment with cyno Kv1.3 [10], the EC50, lay at 0.24 nM. Further, in the experiment with cyno Kv1.3 [2], 0.66 nM corresponded to half-maximal inhibition (IC50). The “IC50, CD25 read out, T cell activation assay” value with human Kv1.3 [4] stood at 0.12 nM. In addition, the “IC50, CD25 read out, T cell activation assay, with 10 µM HSA” value in the experiment with human Kv1.3 [4] was 0.037 nM. In addition, in the experiment with human Kv1.3 [4], the “IC50, IFNγ read out, T cell activation assay” value is 0.083 nM. For the same molecule, in the experiment with human Kv1.3 [4], the “IC50, IFNγ read out, T cell activation assay, with 10 µM HSA” value was found to be 0.031 nM. For the same molecule, in the experiment with human Kv1.3 [8], the “IC50, CD25 read out, CCR7-CD45RA- T cells stimulated with anti-CD3” value came out at 0.12 nM. For the same molecule, the “IC50, IFNγ read out, CCR7-CD45RA- T cells stimulated with anti-CD3” value in the experiment with human Kv1.3 [8] was determined as 0.083 nM.
